Laboratory results reported in paper PMC7402034.
pKd: −log10 of the molar value.

Molecular target: SARS-CoV-2 S protein trimer (with mutations R683A and R685A, His-tag) (SARS-CoV-2) (UniProt P0DTC2)
Test: ELISA

Compared with “Human DC-SIGN (Fc-tag) (from UniProt Q9NNX6) (Fc fusion)”, “Human DC-SIGNR (Fc-tag) (from UniProt Q9H2X3) (Fc fusion)” is 0.71 log units lower in pKd: 9.72 for the first, 9.01 for the second.

“Human MGL (Fc-tag) (from UniProt Q8IUN9) (Fc fusion)” gave a pKd of 9.51.
